Reference: article PMC8934652

B1: GU probe (ssRNA)
RNA: UUGUUGUU
B2: GU cold probe (ssRNA)
RNA: UUGUUGUU

How the values were obtained:
CELF1 RRM1/2 [1] = biological target: T1, CELF1 RRM1/2 (UniProt Q92879 1-187); experiment: FP
CELF1 RRM1/2 S147A = CELF1 RRM1/2 S147A (UniProt Q92879 1-187, S147A); experiment: FP
CELF1 RRM1/2 [2] = biological target: T1, CELF1 RRM1/2; experiment: FP competition

T1 sequence (Q92879 1-187): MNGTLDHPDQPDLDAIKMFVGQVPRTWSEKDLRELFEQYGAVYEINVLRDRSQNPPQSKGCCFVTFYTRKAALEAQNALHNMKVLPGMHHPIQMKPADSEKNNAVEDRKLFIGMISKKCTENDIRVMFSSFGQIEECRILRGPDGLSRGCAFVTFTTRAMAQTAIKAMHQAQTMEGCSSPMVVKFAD
CELF1 RRM1/2 S147A, sequence (Q92879 1-187 S147A): as the sequence (Q92879 1-187) above, with S147A counted along it

Binder | binding result (CELF1 RRM1/2 [1]) | binding result (CELF1 RRM1/2 S147A) | binding result (CELF1 RRM1/2 [2])
B1 | binds | binds | –
B2 | – | – | binds
